T1: human VEGF (human, UniProt P15692 207-395, biotinylated (site not stated))
T1 construct: Biotinylated human VEGF generated internally; also called hVEGF; hVEGF-biotin
T1 sequence: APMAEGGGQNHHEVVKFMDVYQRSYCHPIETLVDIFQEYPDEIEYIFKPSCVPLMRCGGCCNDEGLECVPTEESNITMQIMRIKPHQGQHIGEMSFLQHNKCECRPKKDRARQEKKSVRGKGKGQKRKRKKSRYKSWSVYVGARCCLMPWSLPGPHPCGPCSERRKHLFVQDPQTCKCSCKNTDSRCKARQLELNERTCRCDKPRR

B1: NVS4 heavy chain variant D31N (Fab, V domains shown)
VH: EVQLVESGGGLVQPGGSLRLSCTASGFSLTNYYYMTWVRQAPGKGLEWVGFIDPDDDPYYATWAKGRFTISRDNSKNTLYLQMNSLRAEDTAVYYCAGGDHNSGWGLDIWGQGTLVTVSS
VL: EIVMTQSPSTLSASVGDRVIITCQASEIIHSWLAWYQQKPGKAPKLLIYLASTLASGVPSRFSGSGSGAEFTLTISSLQPDDFATYYCQNVYLASTNGANFGQGTKLTVLK
notes: CDR variant of NVS4
B2: NVS4 heavy chain variant D55Q + D56N (Fab, V domains shown)
VH: EVQLVESGGGLVQPGGSLRLSCTASGFSLTDYYYMTWVRQAPGKGLEWVGFIDPQNDPYYATWAKGRFTISRDNSKNTLYLQMNSLRAEDTAVYYCAGGDHNSGWGLDIWGQGTLVTVSS
VL: EIVMTQSPSTLSASVGDRVIITCQASEIIHSWLAWYQQKPGKAPKLLIYLASTLASGVPSRFSGSGSGAEFTLTISSLQPDDFATYYCQNVYLASTNGANFGQGTKLTVLK
notes: CDR variant of NVS4
B3: NVS4 heavy chain variant D55N (Fab, V domains shown)
VH: EVQLVESGGGLVQPGGSLRLSCTASGFSLTDYYYMTWVRQAPGKGLEWVGFIDPNDDPYYATWAKGRFTISRDNSKNTLYLQMNSLRAEDTAVYYCAGGDHNSGWGLDIWGQGTLVTVSS
VL: EIVMTQSPSTLSASVGDRVIITCQASEIIHSWLAWYQQKPGKAPKLLIYLASTLASGVPSRFSGSGSGAEFTLTISSLQPDDFATYYCQNVYLASTNGANFGQGTKLTVLK
notes: CDR variant of NVS4
B4: NVS4 heavy chain variant D55Q (Fab, V domains shown)
VH: EVQLVESGGGLVQPGGSLRLSCTASGFSLTDYYYMTWVRQAPGKGLEWVGFIDPQDDPYYATWAKGRFTISRDNSKNTLYLQMNSLRAEDTAVYYCAGGDHNSGWGLDIWGQGTLVTVSS
VL: EIVMTQSPSTLSASVGDRVIITCQASEIIHSWLAWYQQKPGKAPKLLIYLASTLASGVPSRFSGSGSGAEFTLTISSLQPDDFATYYCQNVYLASTNGANFGQGTKLTVLK
notes: CDR variant of NVS4
B5: NVS4 heavy chain variant D55N + D56N (Fab, V domains shown)
VH: EVQLVESGGGLVQPGGSLRLSCTASGFSLTDYYYMTWVRQAPGKGLEWVGFIDPNNDPYYATWAKGRFTISRDNSKNTLYLQMNSLRAEDTAVYYCAGGDHNSGWGLDIWGQGTLVTVSS
VL: EIVMTQSPSTLSASVGDRVIITCQASEIIHSWLAWYQQKPGKAPKLLIYLASTLASGVPSRFSGSGSGAEFTLTISSLQPDDFATYYCQNVYLASTNGANFGQGTKLTVLK
notes: CDR variant of NVS4
B6: NVS4 heavy chain variant D31S (Fab, V domains shown)
VH: EVQLVESGGGLVQPGGSLRLSCTASGFSLTSYYYMTWVRQAPGKGLEWVGFIDPDDDPYYATWAKGRFTISRDNSKNTLYLQMNSLRAEDTAVYYCAGGDHNSGWGLDIWGQGTLVTVSS
VL: EIVMTQSPSTLSASVGDRVIITCQASEIIHSWLAWYQQKPGKAPKLLIYLASTLASGVPSRFSGSGSGAEFTLTISSLQPDDFATYYCQNVYLASTNGANFGQGTKLTVLK
notes: CDR variant of NVS4
B7: NVS4 heavy chain variant D31S + Y32K (Fab, V domains shown)
VH: EVQLVESGGGLVQPGGSLRLSCTASGFSLTSKYYMTWVRQAPGKGLEWVGFIDPDDDPYYATWAKGRFTISRDNSKNTLYLQMNSLRAEDTAVYYCAGGDHNSGWGLDIWGQGTLVTVSS
VL: EIVMTQSPSTLSASVGDRVIITCQASEIIHSWLAWYQQKPGKAPKLLIYLASTLASGVPSRFSGSGSGAEFTLTISSLQPDDFATYYCQNVYLASTNGANFGQGTKLTVLK
notes: CDR variant of NVS4

The assay concerns the target T1, human VEGF. The assay can be described thus: Biacore SPR, hVEGF.
Procedure: At first, individual CDR residues were substituted and the affinity for hVEGF was measured by Biacore as described below. […] HC8T, and HC9T and the affinity of the resulting peptide-tagged Fab for both HA and hVEGF was measured by Biacore as described below (Table 17).
Affinity of optimized HA-binding peptide tags for HA and human VEGF were measured by Biacore. […] In order to determine target kinetics, two different formats were utilized. […] The second format is an anti-fab capture method in which the fab protein samples are captured and the target proteins flowed over at various concentrations.
The sample compartment which includes the analytes, ligands, and regeneration buffer, is kept at 15° C. All other running conditions were carried out at either 25° C. or 37° C. in 1×HBSE+P buffer. […] Data was collected at 10 Hz and analyzed using the Biacore T200 Evaluation Software (GE Healthcare®). This program uses a global fitting analysis method for the determination of rate and affinity constants for each interaction.
B1: binding was characterised by a dissociation constant (Kd) of 4.09 pM, the koff (usually a measure of how fast the partners let go of each other) worked out at 4.7e-05 s⁻¹ and the association rate constant (kon) (usually the second-order rate constant of association) amounted to 1.15e+07 M⁻¹ s⁻¹.
Taken in the same sequence, the figures for B2 were 90.9 pM, 0.000656 s⁻¹ and 7.22e+06 M⁻¹ s⁻¹.
Consider B3, for which binding was characterised by a dissociation constant (Kd) of 103 pM, the koff is 0.000654 s⁻¹ and the on-rate constant (kon) amounted to 6.35e+06 M⁻¹ s⁻¹.
B4: the Kd – broadly, the constant that tells how readily two partners part at equilibrium – was determined as 82.3 pM; the koff amounted to 0.000541 s⁻¹; the kon was 6.57e+06 M⁻¹ s⁻¹.
B5 showed a Kd of 108 pM, a koff of 0.000951 s⁻¹ and a kon of 8.82e+06 M⁻¹ s⁻¹.
On to B6, for which binding was put at a Kd of 8.86 pM, the off-rate constant (koff) is 4.67e-05 s⁻¹ and the on-rate constant (kon) is 5.27e+06 M⁻¹ s⁻¹.
The corresponding values for B7 are 185 pM, 0.000958 s⁻¹ and 5.18e+06 M⁻¹ s⁻¹.

The values are drawn from US20170290876A1 (Novartis, published 2017).
